Measurements as given in the supplement of paper PMC10266784.

B1: library; numbered along this chain (parent)
chain: MAAAAAAAAEQQSSNGPVKKSMREKAVERRSVNKEHNSNFKAGYIPIDEDRLHKTGLRGRKGNLAICVIILLFILAVINLIITLVIWAVIRIGPNGCDSMEFHESGLLRFKQVSDMGVIHPLYKSTVGGRRNENLVITGNNQPIVFQQGTTKLSVENNKTSITSDIGMQFFDPRTQNILFSTDYETHEFHLPSGVKSLNVQKASTERITSNATSDLNIKVDGRAIVRGNEGVFIMGKTIEFHMGGNMELKAENSIILNGSVMVSTTRLPSSSSGDQLGSGDWVRYKLCMCADGTLFKVQVTSQNMGCQISDNPCGNTH

Variants of: B1
Test: SGCB cell-surface expression functional score (HA stain, bin4 vs bin1, normalised to synonymous) (log10 ratio); higher = more cell-surface SGCB (functional)
Procedure, shortened: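 Sorting and sequencing yield the functional score, defined as the log ratio of a variant's highest-bin frequency to its lowest-bin frequency, with the median taken over codons and replicate transductions. The libraries, codon-saturation sets of HA-tagged, YFP-fused human beta-sarcoglycan, went into HEK293 cells stably carrying alpha-, gamma- and delta-sarcoglycan by duplicate lentiviral transduction at MOI <0.1. Cells were stained on ice with Alexa Fluor 647 anti-HA, fixed and split into four 5% intensity bins, and synonymous variants were scaled per section to mean 0, SD 0.5.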

Row | Variant | SGCB cell-surface expression functional score (log10)
1 | MAAAAAAAAEQQSSNGPVKKSMREKAVERRSVNKEHNSNFKAGYIPIDEDRLHKTGLRGRKGNLAICVIILLFILAVINLIITLVIWAVIRIGPNGCDSMEFHESGVLRFKQVSDMGVIHPLYKSTVGGRRNENLVITGNNQPIVFQQGTTKLSVENNKTSITSDIGMQFFDPRTQNILFSTDYETHEFHLPSGVKSLNVQKASTERITSNATSDLNIKVDGRAIVRGNEGVFIMGKTIEFHMGGNMELKAENSIILNGSVMVSTTRLPSSSSGDQLGSGDWVRYKLCMCADGTLFKVQVTSQNMGCQISDNPCGNTH [L107V] | -0.21
2 | MAAAAAAAAEQQSSNGPVKKSMREKAVERRSVNKEHNSNFKAGYIPIDEDRLHKTGLRGRKGNLAICVIILLFILAVINLIITLVIWAVIRIGPNGCDSMEFHESGMLRFKQVSDMGVIHPLYKSTVGGRRNENLVITGNNQPIVFQQGTTKLSVENNKTSITSDIGMQFFDPRTQNILFSTDYETHEFHLPSGVKSLNVQKASTERITSNATSDLNIKVDGRAIVRGNEGVFIMGKTIEFHMGGNMELKAENSIILNGSVMVSTTRLPSSSSGDQLGSGDWVRYKLCMCADGTLFKVQVTSQNMGCQISDNPCGNTH [L107M] | 0.24
3 | MAAAAAAAAEQQSSNGPVKKSMREKAVERRSVNKEHNSNFKAGYIPIDEDRLHKTGLRGRKGNLAICVIILLFILAVINLIITLVIWAVIRIGPNGCDSMEFHESGSLRFKQVSDMGVIHPLYKSTVGGRRNENLVITGNNQPIVFQQGTTKLSVENNKTSITSDIGMQFFDPRTQNILFSTDYETHEFHLPSGVKSLNVQKASTERITSNATSDLNIKVDGRAIVRGNEGVFIMGKTIEFHMGGNMELKAENSIILNGSVMVSTTRLPSSSSGDQLGSGDWVRYKLCMCADGTLFKVQVTSQNMGCQISDNPCGNTH [L107S] | -0.46
4 | MAAAAAAAAEQQSSNGPVKKSMREKAVERRSVNKEHNSNFKAGYIPIDEDRLHKTGLRGRKGNLAICVIILLFILAVINLIITLVIWAVIRIGPNGCDSMEFHESGTLRFKQVSDMGVIHPLYKSTVGGRRNENLVITGNNQPIVFQQGTTKLSVENNKTSITSDIGMQFFDPRTQNILFSTDYETHEFHLPSGVKSLNVQKASTERITSNATSDLNIKVDGRAIVRGNEGVFIMGKTIEFHMGGNMELKAENSIILNGSVMVSTTRLPSSSSGDQLGSGDWVRYKLCMCADGTLFKVQVTSQNMGCQISDNPCGNTH [L107T] | -0.34
5 | MAAAAAAAAEQQSSNGPVKKSMREKAVERRSVNKEHNSNFKAGYIPIDEDRLHKTGLRGRKGNLAICVIILLFILAVINLIITLVIWAVIRIGPNGCDSMEFHESGKLRFKQVSDMGVIHPLYKSTVGGRRNENLVITGNNQPIVFQQGTTKLSVENNKTSITSDIGMQFFDPRTQNILFSTDYETHEFHLPSGVKSLNVQKASTERITSNATSDLNIKVDGRAIVRGNEGVFIMGKTIEFHMGGNMELKAENSIILNGSVMVSTTRLPSSSSGDQLGSGDWVRYKLCMCADGTLFKVQVTSQNMGCQISDNPCGNTH [L107K] | -0.53
6 | MAAAAAAAAEQQSSNGPVKKSMREKAVERRSVNKEHNSNFKAGYIPIDEDRLHKTGLRGRKGNLAICVIILLFILAVINLIITLVIWAVIRIGPNGCDSMEFHESGNLRFKQVSDMGVIHPLYKSTVGGRRNENLVITGNNQPIVFQQGTTKLSVENNKTSITSDIGMQFFDPRTQNILFSTDYETHEFHLPSGVKSLNVQKASTERITSNATSDLNIKVDGRAIVRGNEGVFIMGKTIEFHMGGNMELKAENSIILNGSVMVSTTRLPSSSSGDQLGSGDWVRYKLCMCADGTLFKVQVTSQNMGCQISDNPCGNTH [L107N] | -0.13
7 | MAAAAAAAAEQQSSNGPVKKSMREKAVERRSVNKEHNSNFKAGYIPIDEDRLHKTGLRGRKGNLAICVIILLFILAVINLIITLVIWAVIRIGPNGCDSMEFHESGPLRFKQVSDMGVIHPLYKSTVGGRRNENLVITGNNQPIVFQQGTTKLSVENNKTSITSDIGMQFFDPRTQNILFSTDYETHEFHLPSGVKSLNVQKASTERITSNATSDLNIKVDGRAIVRGNEGVFIMGKTIEFHMGGNMELKAENSIILNGSVMVSTTRLPSSSSGDQLGSGDWVRYKLCMCADGTLFKVQVTSQNMGCQISDNPCGNTH [L107P] | -0.47
8 | MAAAAAAAAEQQSSNGPVKKSMREKAVERRSVNKEHNSNFKAGYIPIDEDRLHKTGLRGRKGNLAICVIILLFILAVINLIITLVIWAVIRIGPNGCDSMEFHESGQLRFKQVSDMGVIHPLYKSTVGGRRNENLVITGNNQPIVFQQGTTKLSVENNKTSITSDIGMQFFDPRTQNILFSTDYETHEFHLPSGVKSLNVQKASTERITSNATSDLNIKVDGRAIVRGNEGVFIMGKTIEFHMGGNMELKAENSIILNGSVMVSTTRLPSSSSGDQLGSGDWVRYKLCMCADGTLFKVQVTSQNMGCQISDNPCGNTH [L107Q] | 0
9 | MAAAAAAAAEQQSSNGPVKKSMREKAVERRSVNKEHNSNFKAGYIPIDEDRLHKTGLRGRKGNLAICVIILLFILAVINLIITLVIWAVIRIGPNGCDSMEFHESGYLRFKQVSDMGVIHPLYKSTVGGRRNENLVITGNNQPIVFQQGTTKLSVENNKTSITSDIGMQFFDPRTQNILFSTDYETHEFHLPSGVKSLNVQKASTERITSNATSDLNIKVDGRAIVRGNEGVFIMGKTIEFHMGGNMELKAENSIILNGSVMVSTTRLPSSSSGDQLGSGDWVRYKLCMCADGTLFKVQVTSQNMGCQISDNPCGNTH [L107Y] | -0.27
10 | MAAAAAAAAEQQSSNGPVKKSMREKAVERRSVNKEHNSNFKAGYIPIDEDRLHKTGLRGRKGNLAICVIILLFILAVINLIITLVIWAVIRIGPNGCDSMEFHESGRLRFKQVSDMGVIHPLYKSTVGGRRNENLVITGNNQPIVFQQGTTKLSVENNKTSITSDIGMQFFDPRTQNILFSTDYETHEFHLPSGVKSLNVQKASTERITSNATSDLNIKVDGRAIVRGNEGVFIMGKTIEFHMGGNMELKAENSIILNGSVMVSTTRLPSSSSGDQLGSGDWVRYKLCMCADGTLFKVQVTSQNMGCQISDNPCGNTH [L107R] | -0.36
11 | MAAAAAAAAEQQSSNGPVKKSMREKAVERRSVNKEHNSNFKAGYIPIDEDRLHKTGLRGRKGNLAICVIILLFILAVINLIITLVIWAVIRIGPNGCDSMEFHESGWLRFKQVSDMGVIHPLYKSTVGGRRNENLVITGNNQPIVFQQGTTKLSVENNKTSITSDIGMQFFDPRTQNILFSTDYETHEFHLPSGVKSLNVQKASTERITSNATSDLNIKVDGRAIVRGNEGVFIMGKTIEFHMGGNMELKAENSIILNGSVMVSTTRLPSSSSGDQLGSGDWVRYKLCMCADGTLFKVQVTSQNMGCQISDNPCGNTH [L107W] | -0.39
12 | MAAAAAAAAEQQSSNGPVKKSMREKAVERRSVNKEHNSNFKAGYIPIDEDRLHKTGLRGRKGNLAICVIILLFILAVINLIITLVIWAVIRIGPNGCDSMEFHESGLHRFKQVSDMGVIHPLYKSTVGGRRNENLVITGNNQPIVFQQGTTKLSVENNKTSITSDIGMQFFDPRTQNILFSTDYETHEFHLPSGVKSLNVQKASTERITSNATSDLNIKVDGRAIVRGNEGVFIMGKTIEFHMGGNMELKAENSIILNGSVMVSTTRLPSSSSGDQLGSGDWVRYKLCMCADGTLFKVQVTSQNMGCQISDNPCGNTH [L108H] | -0.95
13 | MAAAAAAAAEQQSSNGPVKKSMREKAVERRSVNKEHNSNFKAGYIPIDEDRLHKTGLRGRKGNLAICVIILLFILAVINLIITLVIWAVIRIGPNGCDSMEFHESGLIRFKQVSDMGVIHPLYKSTVGGRRNENLVITGNNQPIVFQQGTTKLSVENNKTSITSDIGMQFFDPRTQNILFSTDYETHEFHLPSGVKSLNVQKASTERITSNATSDLNIKVDGRAIVRGNEGVFIMGKTIEFHMGGNMELKAENSIILNGSVMVSTTRLPSSSSGDQLGSGDWVRYKLCMCADGTLFKVQVTSQNMGCQISDNPCGNTH [L108I] | 0.03
14 | MAAAAAAAAEQQSSNGPVKKSMREKAVERRSVNKEHNSNFKAGYIPIDEDRLHKTGLRGRKGNLAICVIILLFILAVINLIITLVIWAVIRIGPNGCDSMEFHESGLFRFKQVSDMGVIHPLYKSTVGGRRNENLVITGNNQPIVFQQGTTKLSVENNKTSITSDIGMQFFDPRTQNILFSTDYETHEFHLPSGVKSLNVQKASTERITSNATSDLNIKVDGRAIVRGNEGVFIMGKTIEFHMGGNMELKAENSIILNGSVMVSTTRLPSSSSGDQLGSGDWVRYKLCMCADGTLFKVQVTSQNMGCQISDNPCGNTH [L108F] | -1.87
15 | MAAAAAAAAEQQSSNGPVKKSMREKAVERRSVNKEHNSNFKAGYIPIDEDRLHKTGLRGRKGNLAICVIILLFILAVINLIITLVIWAVIRIGPNGCDSMEFHESGLGRFKQVSDMGVIHPLYKSTVGGRRNENLVITGNNQPIVFQQGTTKLSVENNKTSITSDIGMQFFDPRTQNILFSTDYETHEFHLPSGVKSLNVQKASTERITSNATSDLNIKVDGRAIVRGNEGVFIMGKTIEFHMGGNMELKAENSIILNGSVMVSTTRLPSSSSGDQLGSGDWVRYKLCMCADGTLFKVQVTSQNMGCQISDNPCGNTH [L108G] | -0.9
16 | MAAAAAAAAEQQSSNGPVKKSMREKAVERRSVNKEHNSNFKAGYIPIDEDRLHKTGLRGRKGNLAICVIILLFILAVINLIITLVIWAVIRIGPNGCDSMEFHESGLERFKQVSDMGVIHPLYKSTVGGRRNENLVITGNNQPIVFQQGTTKLSVENNKTSITSDIGMQFFDPRTQNILFSTDYETHEFHLPSGVKSLNVQKASTERITSNATSDLNIKVDGRAIVRGNEGVFIMGKTIEFHMGGNMELKAENSIILNGSVMVSTTRLPSSSSGDQLGSGDWVRYKLCMCADGTLFKVQVTSQNMGCQISDNPCGNTH [L108E] | -1.58
17 | MAAAAAAAAEQQSSNGPVKKSMREKAVERRSVNKEHNSNFKAGYIPIDEDRLHKTGLRGRKGNLAICVIILLFILAVINLIITLVIWAVIRIGPNGCDSMEFHESGLCRFKQVSDMGVIHPLYKSTVGGRRNENLVITGNNQPIVFQQGTTKLSVENNKTSITSDIGMQFFDPRTQNILFSTDYETHEFHLPSGVKSLNVQKASTERITSNATSDLNIKVDGRAIVRGNEGVFIMGKTIEFHMGGNMELKAENSIILNGSVMVSTTRLPSSSSGDQLGSGDWVRYKLCMCADGTLFKVQVTSQNMGCQISDNPCGNTH [L108C] | 0.01
18 | MAAAAAAAAEQQSSNGPVKKSMREKAVERRSVNKEHNSNFKAGYIPIDEDRLHKTGLRGRKGNLAICVIILLFILAVINLIITLVIWAVIRIGPNGCDSMEFHESGLARFKQVSDMGVIHPLYKSTVGGRRNENLVITGNNQPIVFQQGTTKLSVENNKTSITSDIGMQFFDPRTQNILFSTDYETHEFHLPSGVKSLNVQKASTERITSNATSDLNIKVDGRAIVRGNEGVFIMGKTIEFHMGGNMELKAENSIILNGSVMVSTTRLPSSSSGDQLGSGDWVRYKLCMCADGTLFKVQVTSQNMGCQISDNPCGNTH [L108A] | -0.07
19 | MAAAAAAAAEQQSSNGPVKKSMREKAVERRSVNKEHNSNFKAGYIPIDEDRLHKTGLRGRKGNLAICVIILLFILAVINLIITLVIWAVIRIGPNGCDSMEFHESGLDRFKQVSDMGVIHPLYKSTVGGRRNENLVITGNNQPIVFQQGTTKLSVENNKTSITSDIGMQFFDPRTQNILFSTDYETHEFHLPSGVKSLNVQKASTERITSNATSDLNIKVDGRAIVRGNEGVFIMGKTIEFHMGGNMELKAENSIILNGSVMVSTTRLPSSSSGDQLGSGDWVRYKLCMCADGTLFKVQVTSQNMGCQISDNPCGNTH [L108D] | -1.53
